Measurements published in patent US20240301086A1 (APTEVO RESEARCH AND DEVELOPMENT, published 2024).
Where a chain is given by its changes, count along the chain named. Blank lines part the entries; values can stand above or below the binder they belong to.

Legend:
[1] = target: T1, recombinant human FcRn/b2M complex (human, UniProt P55899 24-297; P61769 21-119, limits assumed); experiment: SPR at pH 6.0, hFcRn/b2M amine-coupled, construct 1-81 nM as analyte, steady-state affinity model
T1 construct: also called hFcRn/b2M; neonatal Fc receptor
Protocol: Recombinant FcRn/b2M protein was generated via transient transfection of HEK-293 cells with a bi-cistronic vector containing the genes for both FcRn and […]. The complex was purified using IMAC chromatography and subsequently buffer exchanged into PBS buffer after verifying purity of the IMAC eluate by analytical SEC. Purified hFcRn/b2M at 5 μg/ml in 10 mM sodium acetate (pH 5.0) was immobilized on a CM5 chip by direct amine coupling chemistry to a level of ˜400 RU. A reference flow cell was left blank.
Different concentrations of the Fc variant protein (1-81 nM by 3-fold dilutions in HBS-EP+ with 0.2% BSA running buffer at pH 6.0) including running buffer as blank were injected in randomized order at 30 μL/min for 180 seconds followed by a 180 second dissociation period. Optimal regeneration was achieved by two injections of HBS-EP+ with 0.2% BSA at pH 7.5 at a flow rate of […] for 30 seconds followed by running buffer stabilization for 1 minute.
Sensorgrams obtained from kinetic SPR measurements were analyzed by the double subtraction method. […] Buffer reference was subtracted from analyte binding responses, and the final double-referenced data were analyzed with Biacore T200 Evaluation software (2.0, GE), globally fitting data to derive kinetic parameters. […]

[2] = target: T2, Human PSMA ECD-AFH (TSC033), recombinant dimeric PSMA ECD (human, UniProt Q04609 44-750); experiment: SPR (Biacore T200), human PSMA dimer ECD 10X His (TSC033), 1:1 fit
T2 construct: SEC-purified dimer; also called HuPSMA-AFH; Avi-His-Human PSMA ECD

[3] = target: T2, Human PSMA ECD-AFH (TSC033), …; experiment: SPR (Biacore), recombinant dimeric PSMA ECD
Protocol: Mouse anti-human IgG (GE, BR-1008-39) at 25 μg/ml in 10 mM sodium acetate pH 5.0 was immobilized at a density of ˜2,000-4,000 response units (RU) onto each flow cell of a CM5 research-grade sensor chip (GE) by standard amine coupling chemistry. Each anti-PSMA protein at approximately 40 nM in dPBS with 0.2% BSA buffer was captured in a flow cell with the immobilized anti-human IgG at a flow rate of […] for up to 30 seconds, leaving one flow cell surface unmodified as the reference. Using a multi-cycle kinetics mode, a buffer blank and […] different concentrations of ECD ranging from 1 nM to 243 nM were sequentially injected through each flow cell at 30 μL/min with association times varying from 300-600 seconds and dissociation times varying from 600-1200 seconds. Regeneration was achieved by injection of 3 M MgCl₂ at a flow rate of 30 μL/min for up to 40 seconds followed by dPBS with 0.2% BSA buffer stabilization for 1 min.
The KD was determined for a set of PSMA×CD3 bispecific proteins binding to recombinant dimeric PSMA ECD using SPR. In comparison to the constructs analyzed in Table 3, which all had the anti-PSMA scFv in the VL-VH orientation, the constructs in Table 11 have sequences with the reverse the order of the variable domains. The constructs below utilize the PSMA01023 anti-PSMA sequence as a basis.

[4] = target: T3, human Fcγ receptor IIA, R167 variant (human, UniProt P12318 36-218); experiment: SPR (Biacore T200), construct amine-coupled, Fcγ receptor at 4-6 µM as analyte
T3 construct: also called Type IIA R167
T3 sequence (looked up): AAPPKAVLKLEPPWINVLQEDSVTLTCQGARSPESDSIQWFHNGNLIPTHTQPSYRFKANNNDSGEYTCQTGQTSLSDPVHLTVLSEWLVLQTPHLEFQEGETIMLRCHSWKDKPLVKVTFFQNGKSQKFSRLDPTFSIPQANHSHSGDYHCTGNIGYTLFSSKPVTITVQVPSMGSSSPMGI
Protocol: (§1) The Fc region incorporated into anti-PSMA bispecific constructs contained mutations intended to reduce or abolish binding to common human and cynomolgus Fc gamma receptors. SPR experiments were conducted at 25° C. in HBS-EP+ with 0.2% BSA buffer on a Biacore T200 system to evaluate the impact of these mutations on binding. For these experiments, three flow cells of a CM5 sensor chip were immobilized with anti-PSMA bispecifics by standard amine coupling to a response level of ˜2000 RU. A blank immobilization was performed on flow cell #1 for purposes of background signal subtraction. Both human and cynomolgus monkey Fcγ receptors (purchased from R&D Systems) were diluted in HBS-EP+ with 0.2% BSA to 4-6 μM and then flowed as analytes at 30 μL/min for 120 seconds followed by a 240 second dissociation step. No regeneration step was required. Blank-subtracted sensorgrams were visually inspected for binding to each of the Fcγ receptor proteins. […] Attenuated binding to Fcγ receptors IIA (both polymorphic variants) and IIB/C was observed. PSMA01107 and PSMA01108 share the same Fc amino acid sequence and therefore equivalent Fcγ receptor binding behavior was expected.

[5] = target: T4, human Fcγ receptor IIA, H167 variant (human, UniProt P12318 36-218); experiment: as above
T4 sequence (looked up): T3 sequence (looked up) with R132H
Protocol: as §1

human Fcγ receptor IIB/C = target: T5, human Fcγ receptor IIB/C (human, UniProt P31994 46-217); experiment: as above
T5 sequence (looked up): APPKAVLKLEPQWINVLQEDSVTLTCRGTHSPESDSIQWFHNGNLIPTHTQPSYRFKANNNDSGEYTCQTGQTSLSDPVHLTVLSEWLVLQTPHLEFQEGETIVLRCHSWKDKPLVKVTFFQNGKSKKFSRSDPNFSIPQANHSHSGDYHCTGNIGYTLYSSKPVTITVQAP
Protocol: as §1

T2 sequence (Q04609 other isoform, or with tags, fused parts or gaps): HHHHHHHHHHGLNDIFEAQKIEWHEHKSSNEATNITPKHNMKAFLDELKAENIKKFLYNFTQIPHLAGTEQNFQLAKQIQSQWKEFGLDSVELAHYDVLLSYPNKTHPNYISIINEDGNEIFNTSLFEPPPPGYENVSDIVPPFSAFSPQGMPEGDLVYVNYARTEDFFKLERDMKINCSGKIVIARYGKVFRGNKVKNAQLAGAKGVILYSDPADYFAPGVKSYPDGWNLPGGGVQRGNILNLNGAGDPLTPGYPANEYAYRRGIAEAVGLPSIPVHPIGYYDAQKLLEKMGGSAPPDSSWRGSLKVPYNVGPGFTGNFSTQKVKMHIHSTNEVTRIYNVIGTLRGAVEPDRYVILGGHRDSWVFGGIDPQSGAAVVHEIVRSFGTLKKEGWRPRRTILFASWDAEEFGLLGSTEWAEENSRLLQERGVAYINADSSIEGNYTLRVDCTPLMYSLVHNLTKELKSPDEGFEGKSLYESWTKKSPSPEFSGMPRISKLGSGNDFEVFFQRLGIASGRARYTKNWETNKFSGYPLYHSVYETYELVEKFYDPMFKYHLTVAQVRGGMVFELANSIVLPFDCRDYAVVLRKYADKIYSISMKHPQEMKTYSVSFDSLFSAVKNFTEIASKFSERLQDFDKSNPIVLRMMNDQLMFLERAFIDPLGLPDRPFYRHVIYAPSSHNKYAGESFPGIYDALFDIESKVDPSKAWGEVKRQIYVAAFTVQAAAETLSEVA

Kd [1]: 59 nM | Kd [2]: 2.6 nM | Kd [3]: 3.4 nM | koff [3]: 8.5e-05 s⁻¹ | kon [3]: 29000 M⁻¹ s⁻¹
B1: PSMA01107 Anti-PSMA scFv x Fc x linker x Anti CD3 scFv; Anti PSMA scFv x Fc (bispecific antibody)
chain 1: QVQLVQSGAEVKKPGASVKVSCKASGYTFTDYYMHWVRQAPGQGLEWMGYFNPYNDYTRYAQKFQGRVTMTRDTSTSTVYMELSSLRSEDTAVYYCARSDGYYDAMDYWGQGTTVTVSSGGGGSGGGGSGGGGSGGGGSDIQMTQSPSSLSASVGDRVTITCRASKSISKYLAWYQQKPGKAPKLLIHSGSSLESGVPSRFSGSGSGTEFTLTISSLQPDDFATYYCQQHIEYPWTFGQGTKVEIKEPKSSDKTHTCPPCPAPPAAAPSVFLFPPKPKDTLMISRTPEVTCVVVDVSHEDPEVKFNWYVDGVEVHNAKTKPREEQYNSTYRVVSVLTVLHQDWLNGKEYKCAVSNKALPAPIEKTISKAKGQPREPQVYTLPPSRDELTKNQVSLWCLVKGFYPSDIAVEWESNGQPENNYKTTPPVLDSDGSFFLYSKLTVDKSRWQQGNVFSCSVMHEALHNHYTQKSLSLSPGGGGSPSQVQLVQSGAEVKKPGASVKVSCKASGYTFTRSTMHWVRQAPGQGLEWIGYINPSSAYTNYAQKFQGRVTLTADKSTSTAYMELSSLRSEDTAVYYCASPQVHYDYNGFPYWGQGTLVTVSSGGGGSGGGGSGGGGSGGGGSDIQMTQSPSSLSASVGDRVTITCRASSSVSYMNWYQQKPGKAPKRWIYDSSKLASGVPSRFSGSGSGTDFTLTISSLQPEDFATYYCQQWSRNPPTFGQGTKVEIKRS
chain 2: QVQLVQSGAEVKKPGASVKVSCKASGYTFTDYYMHWVRQAPGQGLEWMGYFNPYNDYTRYAQKFQGRVTMTRDTSTSTVYMELSSLRSEDTAVYYCARSDGYYDAMDYWGQGTTVTVSSGGGGSGGGGSGGGGSGGGGSDIQMTQSPSSLSASVGDRVTITCRASKSISKYLAWYQQKPGKAPKLLIHSGSSLESGVPSRFSGSGSGTEFTLTISSLQPDDFATYYCQQHIEYPWTFGQGTKVEIKEPKSSDKTHTCPPCPAPPAAAPSVFLFPPKPKDTLMISRTPEVTCVVVDVSHEDPEVKFNWYVDGVEVHNAKTKPREEQYNSTYRVVSVLTVLHQDWLNGKEYKCAVSNKALPAPIEKTISKAKGQPREPQVYTLPPSRDELTKNQVSLSCAVKGFYPSDIAVEWESNGQPENNYKTTPPVLDSDGSFFLVSKLTVDKSRWQQGNVFSCSVMHEALHNHYTQKSLSLSPG
notes: Heterodimer, bivalent for PSMA and monovalent for CD3 (VH-VL scFv at the C-terminus); also called PSMA1107

Kd [1]: 27 nM | Kd [3]: 3.1 nM | koff [3]: 9e-05 s⁻¹ | kon [3]: 29000 M⁻¹ s⁻¹ | binding result [4]: binds | binding result [5]: binds | binding result (human Fcγ receptor IIB/C): binds
B2: PSMA01108 Anti-PSMA scFv x Fc x linker x Anti CD3 scFv; Anti PSMA scFv x Fc (bispecific antibody)
chain 1: QVQLVQSGAEVKKPGASVKVSCKASGYTFTDYYMHWVRQAPGQGLEWMGYFNPYNDYTRYAQKFQGRVTMTRDTSTSTVYMELSSLRSEDTAVYYCARSDGYYDAMDYWGQGTTVTVSSGGGGSGGGGSGGGGSGGGGSDIQMTQSPSSLSASVGDRVTITCRASKSISKYLAWYQQKPGKAPKLLIHSGSSLESGVPSRFSGSGSGTEFTLTISSLQPDDFATYYCQQHIEYPWTFGQGTKVEIKEPKSSDKTHTCPPCPAPPAAAPSVFLFPPKPKDTLMISRTPEVTCVVVDVSHEDPEVKFNWYVDGVEVHNAKTKPREEQYNSTYRVVSVLTVLHQDWLNGKEYKCAVSNKALPAPIEKTISKAKGQPREPQVYTLPPSRDELTKNQVSLWCLVKGFYPSDIAVEWESNGQPENNYKTTPPVLDSDGSFFLYSKLTVDKSRWQQGNVFSCSVMHEALHNHYTQKSLSLSPGGGGSPSDIQMTQSPSSLSASVGDRVTITCRASSSVSYMNWYQQKPGKAPKRWIYDSSKLASGVPSRFSGSGSGTDFTLTISSLQPEDFATYYCQQWSRNPPTFGQGTKVEIKGGGGSGGGGSGGGGSGGGGSQVQLVQSGAEVKKPGASVKVSCKASGYTFTRSTMHWVRQAPGQGLEWIGYINPSSAYTNYAQKFQGRVTLTADKSTSTAYMELSSLRSEDTAVYYCASPQVHYDYNGFPYWGQGTLVTVSS
chain 2: B1 chain 2
notes: also called PSMA1108; PSAM01108
